The source of these data is patent publication US9284541B2, “Methods and compositions for protein labeling using lipoic acid ligases” (Massachusetts Institute of Technology, priority 2007, dated 2016).

Substrate in this series: [N-]=[N+]=NCCCCCCCC(=O)O
The series is described as follows: Measurement of LplA-probe ligation kinetics (HPLC). Type of series: biochemical, E. coli. As to conditions: other: ligation to E2p, 200 nM LplA; pH 7.0; 30.0 °C. The procedure: To measure the kcat for LplA ligation of lipoic acid to E2p, 50 nM LplA was combined with 200 μM E2p, 750 μM lipoic acid, […], and 2 mM magnesium acetate in 25 mM sodium phosphate pH 7.0. The reaction was initiated with addition of 1 mM ATP to the pre-warmed (30° C.) mixture. The reaction was incubated at 30° C., and 90 μL aliquots were removed every 5 minutes and quenched with 50 mM EDTA (final concentration). Samples were analyzed by C18 reverse-phase HPLC as described in the “Methods” section. Measurements were performed in triplicate. A calibration curve was obtained that correlated the ratio of integrated HPLC peak areas (E2p:E2p-probe) to the actual protein ratio, in order to compensate for differences in the extinction coefficients of E2p and lipoylated E2p. The amount of product obtained at each time point was plotted against time, to obtain the Vmax of the reaction. From this, the kcat value was obtained using the equation Vmax=kcat [E]total.
90 μL aliquots were removed from the 30° C. reactions at 5 minutes intervals, up to 30 minutes, and quenched with 50 mM EDTA (final concentration). Samples were analyzed by HPLC as above. The amount of product obtained at each time point was plotted against time, to obtain the initial velocity for each concentration of azide 7. […] From the Vmax value, kcat was calculated using the equation Vmax=kcat [E]total.

B1: E. coli LplA (Escherichia coli K-12) (protein)
chain: STLRLLISDSYDPWFNLAVEECIFRQMPATQRVLFLWRNADTVVIGRAQNPWKECNTRRMEEDNVRLARRSSGGGAVFHDLGNTCFTFMAGKPEYDKTISTSIVLNALNALGVSAEASGRNDLVVKTVEGDRKVSGSAYRETKDRGFHHGTLLLNADLSRLANYLNPDKKKLAAKGITSVRSRVTNLTELLPGITHEQVCEAITEAFFAHYGERVEAEIISPNKTPDLPNFAETFARQSSWEWNFGQAPAFSHLLDERFTWGGVELHFDVEKGHITRAQVFTDSLNPAPLEALAGRLQGCLYRADMLQQECEALLVDFPEQEKELRELSAWMAGAVR
Broadly, the Km is the concentration of substrate that gives half-maximal velocity. On to B1, for which the Michaelis constant (Km) is 127 ± 11 µM.
